Experimental data: the RNAGym collection of RNA variant scans (doi:10.7554/elife.80360)

B1: Hairpin Ribozyme (parent)
chain: GUCCUCUUUCACGUGCGCGUGAAAGAGAGAAGUGAACCAGAGAAACACACGUUGUGGUAUAUUACCUGGUA

Variants of: B1
Experiment: self-cleavage, relative activity (ratio to wild type); higher = more cleavage; co-transcriptional

| Variant | self-cleavage |
| --- | --- |
| GUCCUCAUUCACGUGCGCGUGAAAGAGAGAAGUGAACCAGAGAAACACACGUUGUGGUACAUUACCUGGUA | 0.923 |
| GUCCUCAUUCACGUGCGCGUGAAAGAGAGAAGUGAACCAGAGAAACACACGUUGUGGUAGAUUACCUGGUA | 0.496 |
| GUCCUCAUUCACGUGCGCGUGAGAGAGAGAAGUGAACCAGAGAAACACACGUUGUGGUAUAUUACCUGGUA | 0.866 |
| GUCCUCAUUCACGUGCGCGUGAAAGAGAGAAGUGAACCAGAGAAACACACGUUGUGGUAUAUUACCUGGCA | 1.04 |
| GUCCUCAUUCACGUGCGCGUGAAAGAGAGAAGUGAACCAGAGAAACACACGUUCUGGUAUAUUACCUGGUA | 0.349 |
| GUCCUUUUUCACGUGCGCGUGAAAGAGAGAAGUGAACCAGAGAAACACACGUUGUGGAAUAUUACCUGGUA | 0.66 |
| GUCCUUUCUCACGUGCGCGUGAAAGAGAGAAGUGAACCAGAGAAACACACGUUGUGGUAUAUUACCUGGUA | 0.686 |
| GUCCUCAUUCACGUGCGCGUGAAAGAGAGAAGUGAACCAGAGAGACACACGUUGUGGUAUAUUACCUGGUA | 0.201 |
| GUCCUCAUUCACGUGCGCGUGAAAGAGAGAAGUGAACCAGAGAUACACACGUUGUGGUAUAUUACCUGGUA | 0.117 |
| GUCCUCAUUCACGUGCGCGUGAAAGAGAGAAGUGAACCCGAGAAACACACGUUGUGGUAUAUUACCUGGUA | 0.498 |
| GUCCUCAUUCACGUGCGCGUGAAAGAGAGAAGUGAACCAGAGAAACACACGUUGUGGUAUAUUACCUGUUA | 0.271 |
| GUCCUCAUUCACGUCCGCGUGAAAGAGAGAAGUGAACCAGAGAAACACACGUUGUGGUAUAUUACCUGGUA | 1.06 |
| GUCCUCAUUCACGUUCGCGUGAAAGAGAGAAGUGAACCAGAGAAACACACGUUGUGGUAUAUUACCUGGUA | 0.844 |
| GUCCUCAUUCACGUACGCGUGAAAGAGAGAAGUGAACCAGAGAAACACACGUUGUGGUAUAUUACCUGGUA | 0.909 |
| GUCCUCAUUCACGUGCGCGUGAAUGAGAGAAGUGAACCAGAGAAACACACGUUGUGGUAUAUUACCUGGUA | 1.15 |
| GUCCUUUUUCACGUGCGCGUGAAAGAGAGAAGUGAACCAGAGAAACACACGUUGUGGUAUAUUACCUAGUA | 0.209 |
| GUCCUUUUUCACGUGCGCGUGAAAGAGAGAAGUGAACCAGAGAAACACACGUUGUGGUAUAUUACCUUGUA | 0.239 |
| GUCCUUUUUCACGUGCGCGUGAAAGAGAGAAGUGAACCAGAGAAACACACGUUGUGGUAUAUUACCUCGUA | 0.154 |
| GUCCUCAUUUACGUGCGCGUGAAAGAGAGAAGUGAACCAGAGAAACACACGUUGUGGUAUAUUACCUGGUA | 0.799 |
| GUCCUCAUUAACGUGCGCGUGAAAGAGAGAAGUGAACCAGAGAAACACACGUUGUGGUAUAUUACCUGGUA | 0.736 |
| GUCCUCAUUCACGUGCGCGUAAAAGAGAGAAGUGAACCAGAGAAACACACGUUGUGGUAUAUUACCUGGUA | 0.706 |
| GUCCUCAUUCACGUGCGCGUGAAAGAGAGAAGUGAACCAGAAAAACACACGUUGUGGUAUAUUACCUGGUA | 0.166 |
| GUCCUCAUUCACGUGCGCGUGAAAGAGAGAAGUGAACCAGAGAAACACACGUUGUGGUAUUUUACCUGGUA | 0.167 |
| GUCCUCAUUCACGUGCGCGUGAAAGAGAGAAGUGAACCAGAGAAACACACGUUGUGGUAUGUUACCUGGUA | 0.186 |
| GUCCUCAUUCACGUGCGCGUGAAAUAGAGAAGUGAACCAGAGAAACACACGUUGUGGUAUAUUACCUGGUA | 0.229 |
| GUCCUCAUUCACGUGCGCGUGAAAAAGAGAAGUGAACCAGAGAAACACACGUUGUGGUAUAUUACCUGGUA | 0.249 |

| Variant | self-cleavage |
| --- | --- |
| GUCCUCAUUCACGUGCGCGUGAAAGAGAGAAGUGAACCAGGGAAACACACGUUGUGGUAUAUUACCUGGUA | 0.973 |
| GUCCUCAUUCACGUGCGCGUGAAAGAGAGAAGUGAACCAGAGAAACAGACGUUGUGGUAUAUUACCUGGUA | 0.0789 |
| GUCCUCAUUCACGUGCGCGUGAAAGAGAGAAGUGAACCAGAGAAACAUACGUUGUGGUAUAUUACCUGGUA | 0.0656 |
| GUCCUCAUUCACGUGCGCGUGAAAGAGAGAAGUGAACCAGAGAAACAAACGUUGUGGUAUAUUACCUGGUA | 0.165 |
| GUCCUUUUUCACGUGCGCGUGAAAGAGAGAAGUGAACCAGAGAAACACACGUUGUGGUAUAUGACCUGGUA | 0.119 |
| GUCCUUUUUCACGUGCGCGUGAAAGAGAGAAGUGAACCAGAGAAACACACGUUGUGGUAUAUCACCUGGUA | 0.167 |
| GUCCUCAUUCACGUGCGCGUGAAAGAGAGAAGUGAACCAGAGAACCACACGUUGUGGUAUAUUACCUGGUA | 0.232 |
| GUCCUCAUUCACGUGCGGGUGAAAGAGAGAAGUGAACCAGAGAAACACACGUUGUGGUAUAUUACCUGGUA | 0.802 |
| GUCCUUCUUCACGUGCGCGUGAAAGAGAGAAGUGAACCAGAGAAACACACGUUGUGGUAUAUUACCUGGUA | 0.555 |
| GUCCUCAUUCACGUGCGCGUGUAAGAGAGAAGUGAACCAGAGAAACACACGUUGUGGUAUAUUACCUGGUA | 0.814 |
| GUCCUCAUUCACCUGCGCGUGAAAGAGAGAAGUGAACCAGAGAAACACACGUUGUGGUAUAUUACCUGGUA | 0.778 |
| GUCCUCAUUCACUUGCGCGUGAAAGAGAGAAGUGAACCAGAGAAACACACGUUGUGGUAUAUUACCUGGUA | 0.774 |
| GUCCUCAUUCACGUGCGCGUGAAAGAGAGAAGUGAACCAGAGAAACACACGGUGUGGUAUAUUACCUGGUA | 0.733 |
| GUCCUUUUUCACGUGCGCGUGAAAGAGAGAAGUGAACCAGAGAAACACACGUUGUGGUAUAUUACCUGGCA | 0.901 |
| GUCCUUUUUCACGUGCGCGUGAAAGAGAGAAGUGAACCAGAGAAACACACGUUGUGGUAUAUUACCUGGGA | 0.588 |
| GUCCUUUUUCACGUGCGCGUGAAAGAGAGAAGUGAACCAGAGAAACACACGUGGUGGUAUAUUACCUGGUA | 0.801 |
| GUCCUUUUUCACGUGCGCGUGAAAGAGAGAAGUGAACCAGAGAAACACACGUCGUGGUAUAUUACCUGGUA | 0.704 |
| GUCCUCAUUCACGUGCGCGUGAAAGAGAGAAGUGAACCAAAGAAACACACGUUGUGGUAUAUUACCUGGUA | 0.313 |
| GUCCUCAUUCACGCGCGCGUGAAAGAGAGAAGUGAACCAGAGAAACACACGUUGUGGUAUAUUACCUGGUA | 0.772 |
| GUCCUCAUUCACGUGCGCGUGAAAGCGAGAAGUGAACCAGAGAAACACACGUUGUGGUAUAUUACCUGGUA | 0.174 |
| GUCCUCAUUCACGUGCGCGUGAAAGUGAGAAGUGAACCAGAGAAACACACGUUGUGGUAUAUUACCUGGUA | 0.202 |
| GUCCUCAUUCACGUGCCCGUGAAAGAGAGAAGUGAACCAGAGAAACACACGUUGUGGUAUAUUACCUGGUA | 0.791 |
| GUCCUCAUUCACGUGCGCGUGAAAGAGUGAAGUGAACCAGAGAAACACACGUUGUGGUAUAUUACCUGGUA | 0.58 |
| GUCCUCAUUCACGUGCGCGCGAAAGAGAGAAGUGAACCAGAGAAACACACGUUGUGGUAUAUUACCUGGUA | 0.774 |
| GUCCUCAUUCACGUGCGCGAGAAAGAGAGAAGUGAACCAGAGAAACACACGUUGUGGUAUAUUACCUGGUA | 0.723 |
| GUCCUCAUUCACGUGCGCGUGAAAGAGAGAAGUGAACCAGAGUAACACACGUUGUGGUAUAUUACCUGGUA | 0.216 |

| Variant | self-cleavage |
| --- | --- |
| GUCCUCAUUCACGUGCGCGUGAAAGAGAGAAGUGAACCAGAGAAACACACGUUGUGGUAUAUUGCCUGGUA | 0.525 |
| GUCCUCAUUCACGUGCGCGUGAAAGAGAGAAGUGAACCAGAGAAACACACGUUGUGGUAUAUAACCUGGUA | 0.181 |
| GUCCUUUUUCACGUGCGCGUGAAAGAGAGAAGUGAACCAGAGAAACACACGUUGUUGUAUAUUACCUGGUA | 0.144 |
| GUCCUCAUUCACGUGCGCGUGAAAGAGACAAGUGAACCAGAGAAACACACGUUGUGGUAUAUUACCUGGUA | 0.149 |
| GUCCUUUUUCACGUGCGCGUGAAAGAGAGAAGAGAACCAGAGAAACACACGUUGUGGUAUAUUACCUGGUA | 0.148 |
| GUCCUCAUUCACGUGCGCGUGAAAGAAAGAAGUGAACCAGAGAAACACACGUUGUGGUAUAUUACCUGGUA | 0.27 |
| GUCCUCAUUCACGUGCGCGUGAAAGAGAGAAGUGAACCAGAGAAACACACUUUGUGGUAUAUUACCUGGUA | 0.866 |
| GUCCUCAUUCACGUGCGCGUGAAAGAGAGAAGUGAACCAGAGAAAAACACGUUGUGGUAUAUUACCUGGUA | 0.0948 |
| GUCCUCAUUCACGUGCGCGUGAAAGAGAGAAGUGAACCAGAGAAACACACGUUGUGGUAUAUUACCCGGUA | 0.25 |
| GUCCUUUUUCACGUGCGCGUGAAAGAGAGAAGUGAACCAGAGAAACACACGUUGUGGUAUAGUACCUGGUA | 0.102 |
| GUCCUCAUUCACGUGCGCGUGAAAGAGAGAAGAGAACCAGAGAAACACACGUUGUGGUAUAUUACCUGGUA | 0.218 |
| GUCCUCAUUCACGUGCGCGUGAAAGAGAGAAGUGAGCCAGAGAAACACACGUUGUGGUAUAUUACCUGGUA | 1.03 |
| GUCCUCAUUCACGUGCGCGUGAAAGAGAGAAGUGAACGAGAGAAACACACGUUGUGGUAUAUUACCUGGUA | 0.2 |
| GUCCUCAUUCACGUGCGCGUGAAAGAGAGAAGUAAACCAGAGAAACACACGUUGUGGUAUAUUACCUGGUA | 1.39 |
| GUCCUCAUUCACGUGCGCGUGAAAGAGAGAAGUGAACCAGAGAAACACACGUAGUGGUAUAUUACCUGGUA | 0.879 |
| GUCCUCAUUCACGUGCGCGUGAAAGAGAGAAGUGAACCAGAGAAACACACGUCGUGGUAUAUUACCUGGUA | 1.07 |
| GUCCUCAUUCACGUGCGCGUGAAAGAGAGAAGUGAACCAGAGAAACACCCGUUGUGGUAUAUUACCUGGUA | 0.18 |
| GUCCUCAUUCACGUGCGCGUGAAAGAGAGAAGUGAACCAGAGAAACACACGUUGUGCUAUAUUACCUGGUA | 0.151 |
| GUCCUCAUUCACGUGCGCGUGAAAGAGAGAAGUGAACCAGAGAAACACACGUUGUGAUAUAUUACCUGGUA | 0.128 |
| GUCCUCAUUCACGUGCGCGUGAAAGAGAGAAGUGCACCAGAGAAACACACGUUGUGGUAUAUUACCUGGUA | 1.28 |
| GUCCUCAAUCACGUGCGCGUGAAAGAGAGAAGUGAACCAGAGAAACACACGUUGUGGUAUAUUACCUGGUA | 1.14 |
| GUCCUUUUUCACGUGCGCGUGAAAGAGAGAAGUGAACCAGAGAAACACACGUUGUGGUAUAUUACCGGGUA | 0.271 |
| GUCCUCAUUCACGUGCGCGUGAAAGAGAGAAGUGAACCAGAGAAACACACGUUGUGGUAUACUACCUGGUA | 0.222 |
| GUCCUCAUUCACGUGCGCGUGAAAGAGAGAAGUGAACCAGAGAAACACACGUUGUGGUAUAUUAGCUGGUA | 0.284 |
